In article PMC10046738, “Detection of Alpha Fetoprotein Based on AIEgen Nanosphere Labeled Aptamer Combined with Sandwich Structure of Magnetic Gold Nanocomposites”:

Biological target: T1, alpha-fetoprotein (AFP) (UniProt P02771 19-609)
T1 sequence: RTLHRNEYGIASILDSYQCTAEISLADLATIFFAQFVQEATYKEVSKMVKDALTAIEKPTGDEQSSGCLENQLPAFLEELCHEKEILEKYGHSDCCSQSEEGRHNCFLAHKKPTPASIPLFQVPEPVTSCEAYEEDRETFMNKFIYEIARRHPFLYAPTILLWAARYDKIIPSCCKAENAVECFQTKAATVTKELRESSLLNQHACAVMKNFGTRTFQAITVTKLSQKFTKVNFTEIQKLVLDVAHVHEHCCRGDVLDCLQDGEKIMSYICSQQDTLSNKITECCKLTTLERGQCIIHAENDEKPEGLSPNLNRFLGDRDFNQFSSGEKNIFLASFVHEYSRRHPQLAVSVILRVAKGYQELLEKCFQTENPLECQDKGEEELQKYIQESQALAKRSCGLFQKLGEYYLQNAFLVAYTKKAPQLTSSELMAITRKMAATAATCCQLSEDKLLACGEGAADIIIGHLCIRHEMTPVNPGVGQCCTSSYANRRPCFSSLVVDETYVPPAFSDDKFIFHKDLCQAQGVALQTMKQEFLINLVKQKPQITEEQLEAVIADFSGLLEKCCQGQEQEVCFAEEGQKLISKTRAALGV
Assay: fluorescence sandwich aptasensor (magnetic capture); capture aptamer on Fe3O4@MPTMS@AuNPs; AFP 0.005-10 ng/mL; LOD 1.429 pg/mL is not a Kd; PBS 10 mM, pH 7.4 (aptamer 1 immobilization); room temperature, 30 min AFP then 30 min aptamer 2; 15 nM aptamer 1, 8 ug/mL AIEgen aptamer 2, 10 ug/mL Fe3O4@MPTMS@AuNPs
Details: label: immobilized on Fe3O4@MPTMS@AuNPs

B1: Aptamer 1 (AFP aptamer, 3'-SH) (ssDNA)
DNA: GTGACGCTCCTAACGCTGACTCAGGTGCAGTTCTCGACTCGGTCTTGATGTGGGTCCTGTCCGTCCGAACCAATC
modifications: 3'-thiol
binding result: binds
